B1: Inhibitor of nuclear factor kappa-B kinase subunit beta (Homo sapiens), O14920 (parent)
chain: MSWSPSLTTQTCGAWEMKERLGTGGFGNVIRWHNQETGEQIAIKQCRQELSPRNRERWCLEIQIMRRLTHPNVVAARDVPEGMQNLAPNDLPLLAMEYCQGGDLRKYLNQFENCCGLREGAILTLLSDIASALRYLHENRIIHRDLKPENIVLQQGEQRLIHKIIDLGYAKELDQGSLCTSFVGTLQYLAPELLEQQKYTVTVDYWSFGTLAFECITGFRPFLPNWQPVQWHSKVRQKSEVDIVVSEDLNGTVKFSSSLPYPNNLNSVLAERLEKWLQLMLMWHPRQRGTDPTYGPNGCFKALDDILNLKLVHILNMVTGTIHTYPVTEDESLQSLKARIQQDTGIPEEDQELLQEAGLALIPDKPATQCISDGKLNEGHTLDMDLVFLFDNSKITYETQISPRPQPESVSCILQEPKRNLAFFQLRKVWGQVWHSIQTLKEDCNRLQQGQRAAMMNLLRNNSCLSKMKNSMASMSQQLKAKLDFFKTSIQIDLEKYSEQTEFGITSDKLLLAWREMEQAVELCGRENEVKLLVERMMALQTDIVDLQRSPMGRKQGGTLDDLEEQARELYRRLREKPRDQRTEGDSQEMVRLLLQAIQSFEKKVRVIYTQLSKTVVCKQKALELLPKVEEVVSLMNEDEKTVVRLQEKRQKELWNLLKIACSKVRGPVSGSPDSMNASRLSQPGQLMSQPSTASNSLPEPAKKSEELVAEAHNLCTLLENAIQDTVREQDQSFTALDWSWLQTEEEEHSCLEQAS
B2: Inhibitor of nuclear factor kappa-B kinase subunit alpha (Homo sapiens), O15111 (parent)
chain: MERPPGLRPGAGGPWEMRERLGTGGFGNVCLYQHRELDLKIAIKSCRLELSTKNRERWCHEIQIMKKLNHANVVKACDVPEELNILIHDVPLLAMEYCSGGDLRKLLNKPENCCGLKESQILSLLSDIGSGIRYLHENKIIHRDLKPENIVLQDVGGKIIHKIIDLGYAKDVDQGSLCTSFVGTLQYLAPELFENKPYTATVDYWSFGTMVFECIAGYRPFLHHLQPFTWHEKIKKKDPKCIFACEEMSGEVRFSSHLPQPNSLCSLVVEPMENWLQLMLNWDPQQRGGPVDLTLKQPRCFVLMDHILNLKIVHILNMTSAKIISFLLPPDESLHSLQSRIERETGINTGSQELLSETGISLDPRKPASQCVLDGVRGCDSYMVYLFDKSKTVYEGPFASRSLSDCVNYIVQDSKIQLPIIQLRKVWAEAVHYVSGLKEDYSRLFQGQRAAMLSLLRYNANLTKMKNTLISASQQLKAKLEFFHKSIQLDLERYSEQMTYGISSEKMLKAWKEMEEKAIHYAEVGVIGYLEDQIMSLHAEIMELQKSPYGRRQGDLMESLEQRAIDLYKQLKHRPSDHSYSDSTEMVKIIVHTVQSQDRVLKELFGHLSKLLGCKQKIIDLLPKVEVALSNIKEADNTVMFMQGKRQKEIWHLLKIACTQSSARSLVGSSLEGAVTPQTSAWLPPTSAEHDHSLSCVVTPQDGETSAQMIEENLNCLGHLSTIIHEANEEQGNSMMNLDWSWLTE
B3: Mitogen-activated protein kinase kinase kinase 14 (Homo sapiens), Q99558 (parent)
chain: MAVMEMACPGAPGSAVGQQKELPKAKEKTPPLGKKQSSVYKLEAVEKSPVFCGKWEILNDVITKGTAKEGSEAGPAAISIIAQAECENSQEFSPTFSERIFIAGSKQYSQSESLDQIPNNVAHATEGKMARVCWKGKRRSKARKKRKKKSSKSLAHAGVALAKPLPRTPEQESCTIPVQEDESPLGAPYVRNTPQFTKPLKEPGLGQLCFKQLGEGLRPALPRSELHKLISPLQCLNHVWKLHHPQDGGPLPLPTHPFPYSRLPHPFPFHPLQPWKPHPLESFLGKLACVDSQKPLPDPHLSKLACVDSPKPLPGPHLEPSCLSRGAHEKFSVEEYLVHALQGSVSSGQAHSLTSLAKTWAARGSRSREPSPKTEDNEGVLLTEKLKPVDYEYREEVHWATHQLRLGRGSFGEVHRMEDKQTGFQCAVKKVRLEVFRAEELMACAGLTSPRIVPLYGAVREGPWVNIFMELLEGGSLGQLVKEQGCLPEDRALYYLGQALEGLEYLHSRRILHGDVKADNVLLSSDGSHAALCDFGHAVCLQPDGLGKSLLTGDYIPGTETHMAPEVVLGRSCDAKVDVWSSCCMMLHMLNGCHPWTQFFRGPLCLKIASEPPPVREIPPSCAPLTAQAIQEGLRKEPIHRVSAAELGGKVNRALQQVGGLKSPWRGEYKEPRHPPPNQANYHQTLHAQPRELSPRAPGPRPAEETTGRAPKLQPPLPPEPPEPNKSPPLTLSKEESGMWEPLPLSSLEPAPARNPSSPERKATVPEQELQQLEIELFLNSLSQPFSLEEQEQILSCLSIDSLSLSDDSEKNPSKASQSSRDTLSSGVHSWSSQAEARSSSWNMVLARGRPTDTPSYFNGVKVQIQSLNGEHLHIREFHRVKVGDIATGISSQIPAAAFSLVTKDGQPVRYDMEVPDSGIDLQCTLAPDGSFAWSWRVKHGQLENRP
partner: B1 chain
B4: Mitogen-activated protein kinase kinase kinase 14 (Homo sapiens), Q99558 (parent)
chain: B3 chain
partner: B2 chain

Variants of: B1
Details: with ikba_human NFKBIA

Variant	effect of a mutation on the interaction
K44A	decreasing interaction

Variants of: B2
Details: with ikba_human NFKBIA

Variant	effect of a mutation on the interaction
K44A	disrupting interaction
S176A	decreasing interaction

Variants of: B2
Details: with ikba_human NFKBIA
Remark: another data set of the same source

Variant	effect of a mutation on the interaction
S176E	increasing interaction

Variants of: B2
Details: with MAP3K14, Q99558

Variant	effect of a mutation on the interaction
S176A	decreasing interaction

Variants of: B3
Details: with ikkb_human IKBKB

Variant	effect of a mutation on the interaction
K429A;K430A	disrupting interaction

Variants of: B4
Details: with ikka_human CHUK, O15111

Variant	effect of a mutation on the interaction
K429A;K430A	disrupting interaction

Reference: IntAct's records for PubMed 9520446
